Assay [1] deals with β-subunit of the F1 part of the Na+-F1FO-ATP synthase of Acetobacterium woodii, N-terminal His6 tag (Acetobacterium woodii (strain ATCC …, UniProt P50002)). Kind of assay: LILBID-MS; tested with 2 mM ATP/2 mM MgCl2; δ binds only once the α3β3 hexameric head (α3β3γ/α3β3γε) is preformed.
Assay [2] has as its target α-subunit of the F1 part of the Na+-F1FO-ATP synthase of Acetobacterium woodii, N-terminal StrepI tag (Acetobacterium woodii (strain ATCC …, UniProt P50000)). The assay is described as above.

Sequence of α-subunit of the F1 part of the Na+-F1FO-ATP synthase of Acetobacterium woodii, N-terminal StrepI tag (Acetobacterium woodii (P50000 whole entry): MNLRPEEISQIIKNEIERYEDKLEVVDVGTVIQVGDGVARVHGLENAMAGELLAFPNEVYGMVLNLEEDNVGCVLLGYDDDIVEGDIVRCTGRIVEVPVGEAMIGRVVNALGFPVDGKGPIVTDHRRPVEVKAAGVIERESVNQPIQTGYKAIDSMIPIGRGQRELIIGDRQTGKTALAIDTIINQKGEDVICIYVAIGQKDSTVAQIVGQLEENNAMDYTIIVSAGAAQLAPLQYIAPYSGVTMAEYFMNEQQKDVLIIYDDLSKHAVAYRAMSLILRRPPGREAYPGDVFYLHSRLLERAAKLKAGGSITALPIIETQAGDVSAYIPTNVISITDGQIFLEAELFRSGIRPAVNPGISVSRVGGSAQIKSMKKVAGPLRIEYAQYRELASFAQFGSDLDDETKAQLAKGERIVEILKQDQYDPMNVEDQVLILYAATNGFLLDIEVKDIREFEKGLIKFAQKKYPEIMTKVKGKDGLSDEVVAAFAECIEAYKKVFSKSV
Sequence of β-subunit of the F1 part of the Na+-F1FO-ATP synthase of Acetobacterium woodii, N-terminal His6 tag (Acetobacterium woodii (P50002 whole entry): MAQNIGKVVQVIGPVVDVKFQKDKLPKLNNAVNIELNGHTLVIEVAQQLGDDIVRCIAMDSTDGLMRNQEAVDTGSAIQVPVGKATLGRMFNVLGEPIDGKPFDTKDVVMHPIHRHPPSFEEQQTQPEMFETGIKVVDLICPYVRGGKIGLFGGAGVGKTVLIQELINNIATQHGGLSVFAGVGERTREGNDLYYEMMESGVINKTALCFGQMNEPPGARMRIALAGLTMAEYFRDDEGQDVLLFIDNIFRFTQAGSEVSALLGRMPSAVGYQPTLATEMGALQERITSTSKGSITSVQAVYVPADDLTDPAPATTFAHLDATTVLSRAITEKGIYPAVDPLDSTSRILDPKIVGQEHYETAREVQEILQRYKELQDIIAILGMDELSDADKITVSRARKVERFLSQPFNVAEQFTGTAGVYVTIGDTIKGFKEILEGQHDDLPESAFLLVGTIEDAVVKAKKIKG

B1: δ-subunit of the F1 part of the Na+-F1FO-ATP synthase of Acetobacterium woodii, C-terminal His6 tag (protein)
chain: MSLVASKYARALFDVAVDKDQLDEIFSDFKTATDLFSSEKKFMDLMLTPSLNTGEKKGILMRSLESLSNQYVKNYLMILMDKNRFEDIFDIYEAFRKLCNEHKNLVEARVLTVIPLDETLRIALEENLAKRFNKKVILENEIDKSILGGAVVYVGDQIIDGSIKNQLSQMKKQVNNLRLH
On to B1, for which the binding result in assay [1] and in assay [2] was “no binding” throughout.
